Experimental findings from patent US20250019453A1 (SYNTHEKINE, published 2025) are described below.

T1: mIL2Rb ECD antigen (murine, UniProt P16297 27-240)
T1 construct: The immunogen was the ECD fused to human IgG1 hinge and Fc; also called ECD of IL2Rb (mouse)
T1 sequence: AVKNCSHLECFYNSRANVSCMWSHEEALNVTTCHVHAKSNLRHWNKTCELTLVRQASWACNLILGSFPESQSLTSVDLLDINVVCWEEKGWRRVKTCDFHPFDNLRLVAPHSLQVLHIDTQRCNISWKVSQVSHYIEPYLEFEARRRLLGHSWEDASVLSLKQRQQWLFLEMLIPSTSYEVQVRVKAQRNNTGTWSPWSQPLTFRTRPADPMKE

T2: hIL2Rg ECD antigen (human, UniProt P31785 23-262)
T2 construct: The immunogen was the ECD fused to human IgG1 hinge and Fc; also called ECD of IL2Rg (human); human IL-2Rγ
T2 sequence: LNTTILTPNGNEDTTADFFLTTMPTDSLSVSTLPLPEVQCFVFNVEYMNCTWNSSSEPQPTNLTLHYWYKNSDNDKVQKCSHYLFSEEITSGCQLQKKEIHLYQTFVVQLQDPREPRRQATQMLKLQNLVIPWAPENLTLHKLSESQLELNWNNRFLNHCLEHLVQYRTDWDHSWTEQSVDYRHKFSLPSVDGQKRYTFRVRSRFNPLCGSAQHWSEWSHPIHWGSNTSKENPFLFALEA

B1: DR1472 (VHH)
VHH: EVQLVESGGGLVRAGDSLRLSCAVSGLASSSFFMTWFRQGQGKEREFVATISWTGRTSYYAASVKGRFTVSRDNAKNTVYLQMNSLNSEDTAVYFCAAYPRTLVRNREPIHWGQGTQVTVSS
notes: As a his-tagged phage clone periplasmic extract
B2: DR1460 (VHH)
VHH: EVQLVESGGGLVQTGDSLRLSCAAPESIFNNNAVYWYRQFPGKEREYVGLITIGGRTGYADSVKGRFTISRDNANNVAFLQMDSLKPEDTAVYYCATGLKFGFNFYSKTAYDYWGQGTQVTVSS
notes: as for B1
B3: DR1464 (VHH)
VHH: EVQLVESGGGLVQAGGSLRLSCAASGRTFSSYAMGWFRQAPGKEREFVTAISRSGGYTSYADSVKGRFTISRDNAKNTVYLQMNSLKPEDTAVYYCAKLIAPFYYGMDYWTKGTQVTVSS
notes: as for B1
B4: DR1462 (VHH)
VHH: EVQLVESGGGLVQAGGSLRLSCVSSGRTFGYVAMGWFRQAPGKEREFVASINWSGGSTAYADSVKGRFTISRDNAKNTVYLQMNSLKPEDTAVYYCAGSTRFYIATMEQGSYDYWGQGTQVTVSS
notes: as for B1
B5: DR1470 (VHH)
VHH: EVQLVESGGGSVQPGGSLRLSCAAPESIFNNNAVYWYRQFPGKEREYVGLITIGGRTGYADSVKGRFTISRDNANNVAFLQMDNLKPEDTAVYYCAARPGYWSSSYDYWGQGTQVTVSS
notes: as for B1
B6: DR1468 (VHH)
VHH: EVQLVESGGGLVQAGGSLRLSCTTSGRTGTHYAMGWFRQAPGKEREFVSLILWNGEFTTYKDSVKGRFTISREKGENTVYLQMNSLKPEDTAVYYCYLRVFARRYWGQGTQVTVSS
notes: as for B1
B7: DR1459 (VHH)
VHH: EVQLVESGGGLVQAGGSLRLSCAASGRTISTYAMVWFRQASGKEREFVGVISRSGDRTYYADSVKGRFTISRDNLGNIVRLQLNSLKPEDTAVYYCARGGYTGIETITARGRGTLVTVSS
notes: as for B1
B8: DR1465 (VHH)
VHH: EVQLVESGGGLMQAGGALRLSCTASGPTFTSYTMGWFRQSPGKRREFVAVISKGGRTYYADSVKGRFTISRDNAKNTFYLQMSSLKPEDTAVYYCAGQRVGATSKYEYDYWGQGTQVTVSS
notes: as for B1
B9: DR1466 (VHH)
VHH: EVQLVESGGGLVRAGGSLRLSCAASGFTFSTDWMYWVRRAPGKGLEWVSLINTDGTSTSYTKSVKGRFTVSRDNAKNTLYLQMNSLKPEDTALYYCARGRTYWFYAMDYWGKGTQVTVSS
notes: as for B1
B10: DR1463 (VHH)
VHH: EVQLVESGGSVVQPGDSLRLACTASGRSFRSYAIGWFRQASGKERVFVAAISYDGRRTYYGRSLKDRFTISRDNAKNTVYLQMNSLKPEDTAVYYCATHRSGTMFARYGMDYWGKGTLVTVSS
notes: as for B1
B11: DR1467 (VHH)
VHH: EVQLVESGGGLVQAGDSLRLSCAASGRISNYAMGWFRQAPGKEREFVAVITRSGGSTYYADSVKGRFTISRDNGKNTIDLQMNRLKPEDTAVYYCAVRRSQKLVTFGAEYPWWGQGTLVTVSS
notes: as for B1
B12: DR1469 (VHH)
VHH: EVQLVESGGGLVQPGGSLRLSCEVSGFTFSNYWMYWIRQAPGKGLEWVSHINTNGGNTYYRHSVKGRFTISRDNAKNTLYLQMNGLKSEDTAVYYCAKANSDVGLGYYGMDYWGKGTQVTVSS
notes: as for B1
B13: DR1461 (VHH)
VHH: EVQLVESGGRLVQAGDSLRLSCVASGRIFNTYSMGWFRQVPGKERDFVAAIRWSGGTTYYTDSVKGRFTISRDNAKNTVYLQMKDLKPQDTAVYYCAAVPSGRSWYGRNRYWGQGTLVTVSS
notes: as for B1
B14: DR1471 (VHH)
VHH: EVQLVESGGGLVQAGGSLRLSCVFSGRAPASYAMAWFRQAVGNEREFVAAINWSGRRTYYADSVKGRFTISKDNAQNTAYLQMTNLEPEDTATYYCNAYLSGTYYWGQGTQVTVSS
notes: as for B1
B15: hIL2Rg_VHH-4 (VHH)
VHH: QVQLQESGGGSVQAGGSLRLSCTASGFTFDDSDMGWYRQAPGNECELVSTISSDGNTYYTDSVKGRFTISQDNAKNTVYLQMNSLGPEDTAVYYCAAEPRGYYSNYGGRRECNYWGQGTQVTVSS
notes: as for B1
B16: hIL2Rg_VHH-13 (VHH)
VHH: QVQLQESGGGSVQAGGSLRLSCTASRFIFDDSDMGWYRQAPGNECELVSTISSDGSTYYADSVKGRFTISRDNAKNTVYLQMNSLKPEDTAVYYCAAEPRGYYSNYGGRRECNYWGQGTQVTVSS
notes: as for B1
B17: hIL2Rg_VHH-17 (VHH)
VHH: QVQLQESGGGLVQPGGSLRLSCAASGFTFSNAHMSWVRQAPGKGREWISSIYSGGSTWYADSVKGRFTISRDNSKNTLYLQLNSLKTEDTAMYYCAENRLHYYSDDDSLRGQGTQVTVSS
notes: as for B1
B18: hIL2Rg_VHH-12 (VHH)
VHH: QVQLQESGGGSVQAGGSLRLSCAASGFTFSNAHMSWVRQAPGKGREWISSIYSGGSTWYADSVKGRFTISRDNSKNTLYLQLNSLKTEDTAMYYCAENRLHYYSDDDSLRGQGTQVTVSS
notes: as for B1
B19: hIL2Rg_VHH-16 (VHH)
VHH: QVQLQESGGGLVQPGGSLRLSCVASGFTFSNAHMSWVRQAPGKGREWISSIYSGGSTWYADSVKGRFTISRDNSKNTLYLQLNSLKTEDTAMYYCAENRLHYYSDDDSLRGQGTQVTVSS
notes: as for B1
B20: hIL2Rg_VHH-6 (VHH)
VHH: QVQLQESGGGAVQAGGSLRLSCAASGFTFSNAHMSWVRQAPGKGREWISSIYSGGSTWYADSVKGRFTISRDNSKNTLYLQLNSLKTEDTAMYYCAENRLHYYSDDDSLRGQGTQVTVSS
notes: as for B1
B21: hIL2Rg_VHH-11 (VHH)
VHH: QVQLQESGGGSVQAGGSLRLSCAASGFTFSSAHMSWVRQAPGKGREWIASIYSGGGTFYADSVKGRFTISRDNAKNTLYLQLNSLKTEDTAMYYCATNRLHYYSDDDSLRGQGTQVTVSS
notes: as for B1
B22: hIL2Rg_VHH-23 (VHH)
VHH: QVQLQESGGGLVQPGGSLRLSCAASGFSFSSYPMTWARQAPGKGLEWVSTIASDGGSTAYAASVEGRFTISRDNAKSTLYLQLNSLKTEDTAMYYCTKGYGDGTPAPGQGTQVTVSS
notes: as for B1
B23: hIL2Rg_VHH-2 (VHH)
VHH: QVQLQESGGGSVPAGGSLKLSCAASGFSFSSYPMTWARQAPGKGLEWVSTIASDGGSTAYAASVEGRFTISRDNAKSTLYLQLNSLKTEDTAMYYCTKGYGDGTPAPGQGTQVTVSS
notes: as for B1
B24: hIL2Rg_VHH-5 (VHH)
VHH: QVQLQESGGGSVQAGGSLRLSCAASGFSFSSYPMTWARQAPGKGLEWVSTIASDGGSTAYAASVEGRFTISRDNAKSTLYLQLNSLKTEDTAMYYCTKGYGDGTPAPGQGTQVTVSS
notes: as for B1
B25: hIL2Rg_VHH-18 (VHH)
VHH: QVQLQESGGGLVQPGGSLRLSCAASGFTFSSYPMTWARQAPGKGLEWVSTIASDGGSTAYAASVEGRFTISRDNAKSTLYLQLNSLKTEDTAMYYCTKGYGDGTPAPGQGTQVTVSS
notes: as for B1
B26: hIL2Rg_VHH-1 (VHH)
VHH: QVQLQESGGGSVQAGGSLRLSCAASGFTFDDSDMGWYRQAPGNECDLVSTISSDGSTYYADSVKGRFTISQDNAKNTVYLQMDSVKPEDTAVYYCAADFMIAIQAPGAGCWGQGTQVTVSS
notes: as for B1
B27: hIL2Rg_VHH-7 (VHH)
VHH: QVQLQESGGGLVQPGGSLRLSCAASGFTFDDREMNWYRQAPGNECELVSTISSDGSTYYADSVKGRFTISQDNAKNTVYLQMDSVKPEDTAVYYCAADFMIAIQAPGAGCWGQGTQVTVSS
notes: as for B1
B28: hIL2Rg_VHH-9 (VHH)
VHH: QVQLQESGGGSVQAGGSLRLSCTASGFTFDDSDMGWYRQAPGGECELVTISSDGSTYYADSVKGRFTISQDNAKNTVYLQMNSLKPEDTAVYYCAAEPRGYYSNYGGRRECNYWGQGTQVTVSS
notes: as for B1
B29: hIL2Rg_VHH-14 (VHH)
VHH: QVQLQESGGGSVQAGGSLKLSCTVSGFTADDSDMGWYRQGPGNECELVTISSDGSTYYADSVKGRFTISQDNAKNTVYLQMNSLKPEDTAVYYCAAEPRGYYSNYGGRRECNYWGQGTQVTVSS
notes: as for B1

One assay has as its target T1, mIL2Rb ECD antigen. The experiment in a line: PE-ELISA of phage clones.
For B1, the binding result is reported as “binds”. Same read-out and setting: the same measure for B2: “binds”. Still for that read-out and setting: the same measure for B3: “binds”; for B4: “binds”; for B5: “binds”. In the case of B6, the binding result is on record as “binds”. Take B7: the binding result is “binds”. B8: the binding result is reported as “binds”. Regarding B9, the binding result is “binds”. On the same count and under the same terms, for B10 the value was “binds”; for B11, “binds”. Still for that read-out and setting: for B12 the value was “binds”. On the same count and under the same terms, the same measure for B13: “binds”. For B14, the binding result is “binds”.

The target of another assay is T2, hIL2Rg ECD antigen. The experiment in a line: PE-ELISA of phage clones. (In general: In an ELISA, binding on a coated surface is turned into a signal by an enzyme label.)
B15: the binding result is reported as “binds”. Regarding B16, the binding result is recorded as “binds”. Consider B17, for which the binding result is “binds”.

Take B18: the binding result is “binds”. Same read-out and setting: the same measure for B19: “binds”; for B20: “binds”.

For the molecule B21, the binding result was “binds”. Regarding B22, the binding result is listed as “binds”. For B23, the binding result was “binds”.

As to B24, the binding result is on record as “binds”. As to B25, the binding result is “binds”.

Turning to B26, the binding result was “binds”. The same measure, in the same setting: the same measure for B27: “binds”.

Regarding B28, the binding result is reported as “binds”. Same read-out and setting: the same measure for B29: “binds”.
